Source: the DeepSol protein solubility set

test: soluble on expression in E. coli; label from the status in PepcDB or PDB records

| Sequence | soluble on expression in E. coli |
| --- | --- |
| MTMSTILFDDIRPYCDQEAPAVIERLLSSAEYRYVFGKMMPDVKPQEFEQMMLRCKSTGEFKHIFGYTAVKAVSEKTTFSLSLSGRSRIPDNGAYIFISNHRDIVLDSAFLNLLLAEIDYNMPQIAIGDNLLVKPWIEDFVRLNGSFIVRRGINMRELIAQSQRLSAYIRHTITQTKDSIWIAQREGRAKDADDRTQSSVLKMLAMSGEDGGIKSLLNLNIVPLSLSYEYDPCDYLKAREMLSKQRDPLYKKPVGEDLLNMQTGIFGYKGRVHFAIGTPLRELAESIPADAPHARQFTEAGKLIDAEIHRRYRLYPGNYVAWDLLDGCDHAGSHYSKEEKETFVNYLSAQIAKVEMQDKDEEELKRLILIMYANPARAYYAAQDPTNV | not soluble |
| MAETQFTRFPFQPFIIEAIKTLRFYKPTEIQERIIPGALRGESMVGQSQTGTGKTHAYLLPIMEKIKPERAEVQAVITAPTRELATQIYHETLKITKFCPKDRMIVARCLIGGTDKQKALEKLNVQPHIVIGTPGRINDFIREQALDVHTAHILVVDEADLMLDMGFITDVDQIAARMPKDLQMLVFSATIPEKLKPFLKKYMENPTFVHVLEHHHHHH | soluble |
| MNQCKVMNDGYLEKRSNGLLQLWKKKRCVLSDEGLRLYGCKGDSGKEMRFEQMTTLDCVEYKRGLVYFTIVMNDGKEVDFRCQQEGTAWNAEIALALVRFKNRVAVQTGRNRHLSHLGSCGEGDVEL | not soluble |
| MEINENPTSFKGFKILQLSDLHNKSFGNNNNRLVKKIIGENPDIIVMTGDMVNAKDNDFEVFINLAEQISKSFDVYYIVGNHEQDLNEDKRKILMDKLSEIGIRVLDNEKVTISRGAESINLYGLWFNLRYYKDLKNEYTKDVFFGTKQIQSILGDLDTDSYNILLTHNPLYADTYSNWGADLTLSGHIHGGMIRIPFVGGLLSPEREFFPEYDAGKYQVNGKILIVNRGLGNGDFGIRVFNPPEISVIMLSNLEHHHHHH | not soluble |
| MSLNQTDLSASSTSSTSRPLVAVTGADGFIGSHLTEDLVRAGYRVRAMAIYNSQGSYGWLDTVPGEVMEHVEVQLGDVRDAGSVRALMRDVQTVYHLAALIAIPYSYVAPRSYVETNITGTLNVLEAARDLGTGRVIHTSTSEVYGTARSVPIHESHPLQGQSPYSATKIGADKLAESYFLSFGLPVVTLRPFNTYGPRQSARAVIPTIISQLAAGRTEIKLGDLRPTRDFNYVADTARAFRAVGEAGPEVLGRTLNAGSGREISVGDTVKLIAQVMGKDVEVKQEDERLRPEGSEVMRLLADHRELQTLTGWQPQVTLEEGLKRTAEWFTDAGNLARYRVDQYTEGHHHHHH | soluble |
| RMNVFDEHHFRVILDYAHNADGVRCMSELASKLEVKGKRITVLAGPGDRRDEDIVNIAKAAAGHFDIYICKADDNRRGRGVNEVPELLASSLRAEGIDESQIYCISDEVEAINKGLELANTDDLLMIFGDAITRCWKQIINFNSGHEPEQE | not soluble |
| MGSDKIHHHHHHMNMFLGEGWQVKPAGGATGEAYIAEQGEQRLFLKRNSSPFLAVLSAEGIVPKLLWTKRLENGDVITAQRWVYGRELKAFEMKEPNVAHLLAKIHHSVELLDMFKRMGNDMLTPQRIIDDLKASMKRHECDDLLFQKGLKFLQTQQEAVNQEQYVVCHCDINHNNWMMSDAGELYLIDWDGATVADPALDLGLLLYSYVPRHEWKTWLANYGLEMSDHLLLRMHWYVVSQTISVMLSNMDRGKHAEAETWQDFLKTLLDDSF | not soluble |
| MGSDKIHHHHHHMFIKNAWYVACRPEEIQDKPLGRTICGEKIVFYRGKENQVAAVEDFCPHRGAPLSLGYVEDGNLVCGYHGLVMGCDGKTVSMPAQRVNGFPCNKAYAVVEKFGFIWVWPGEKALADEAKLPTLEWADHPEWSYGGGLFHIQCDYRLMIDNLMDLTHETYVHSSSIGQKEIDEALPVTKVEGDHVITERYMENVIAPPFWQMALRGNHLADDVPVDRWQRCHFFAPSNVHIEVGVAHAGHGGYHAPKDKKVSSIVVDFITPETETSHWYFWGMARNFQPDNAELTDQIREGQGKIFTEDLEMLEQQQQNILNNPHRKLLMLNIDAGGVQSRKVIDRLLAEENKTPPETSTQKFPNIRII | not soluble |
| DDEITREPRKVVLHRGSTGLGFNIVGGEDGEGIFISFILAGGPADLSGELRKGDRIISVNSVDLRAASHEQAAAALKNAGQAVTIVAQYRPEEYSRQHA | soluble |
| MSLDIHCHILPEIDDGPSSLEESLVMAREAVKEGITKIIATPHHLHPSYNNKAAVVKEKVRKLNEAIQKENIPLEILPGQEVRISGDVMDGLVSGDILTLADQGKYLFVEFSSNHVSRYADKLFFQLLSQDIIPIIVHPERNHEFLKNPGLLYDLVNGGALTQITTSSLTGHLGKKIKKFTEQIIEADLTHFLASDAHNVTERTFRIREAFALVEKNYGSSKAYEFQENAELLVENQHVMGPPPQPIVKKKLLGIFEGHHHHHH | soluble |
| VIRPKTLGQKHYVDAIDTNTIVFGLGPAGSGKTYLAMAKAVQALQSKQVSRIILTRPAVEAGEKLGFLPGTLNEKIDPYLRPLHDALRDMVEPEVIPKLMEAGIVEVAPLAYMRGRTLNDAFVILDEAQNTTPAQMKMFLTRLGFGSKMVVTGDITQVDLPGGQKSGLRLVRHILRGVDDVHFSELTSSDVVRHQLVGHIVDAYEDYEEREARELKRKRQETRP | soluble |
| MEKRELKVKTLSEVRDYEIPILKETVFDIFGGLPQAFIGISGEAGAGKTQTLMRLMADIAKREPVLVVLTEQSPHRWKAIFKKYDTNHENVRVVFKYYMDQDFIKELSQREERIIVIDSISGAVSEQKARQVAKDLRSLVEWKNKWLVGALQVRKEGVAGGEGVEHMIEVSYEITYFQLKPQNKWLYEKLKPFGYEVGDYVRLIRNTFDKVRGVQNTNLVVVDISKKNGILEFRELGRKEGEVNHE | not soluble |
| MGHHHHHHSHMVTASRYYPQLMSLVGNVLRFLPAFVRMKQLISEHYVGAVMICDARIYSGSLLSPSYGWICDELMGGGGLHTMGTYIVDLLTHLTGRRAEKVHGLLKTFVRQNAAIRGIRHVTSDDFCFFQMLMGGGVCSTVTLNFNMPGAFVHEVMVVGSAGRLVARGADLYGQKNSATQEELLLRDSLAVGAGLPEQGPQDVPLLYLKGMVYMVQALRQSFQGQGDRRTWDRTPVSMAASFEDGLYMQSVVDAIKRSSRSGEWEAVEVLTEEPDTNQNLCEALQRNNL | not soluble |
| MSDGETAVIQSLAPGPIDGVSYPLKMVYCGQCSMPPEYCDYSGQTDVCRAWATQNAPELLEGLEISDEPAADGDEKKKQKRGGKGSKTGAAAAQAAASGGKKKGGGPQKVTLQREPRGKKSVTVIKGLATFDIDLKVASKLFAQKFACGSSVTGADEIVIQGDVKDDLLDLIPEKWKQVTDEQIDDLGDKKR | soluble |
| GPGSMHASVVLNMCTASQYTRRTLQSLFERREVDLSALVHVLADNAGYLAATQQGCISLMRVFELCDAAQKAELVRELLPKLAALSMDAFANYMVQCAIEHSDRATAAQYVVAHFTGNILQMSCNKHSSNVLEVVLRCCGEVPAVRRLFLDELVFNPAALKEVVGDLYGNFVVQALIGVVTNPMEFKRVEDRLRPALVGCQFAAKIEGKIKAKRPVPPHAGGAVHHHSYPQSRQQRPLSVPCTMPDHVGPCAPSVRATIALPQAPVMSLGEARVPTQGYCHRPYDCNPLCCAPLAAEQQQPQNVVQAPSGHVYPVDHFQFPILKERTAARAAGAVPVTDGEDSGPVYGPSPAARRHLQQQQQQAFRPPFNIMC | not soluble |
| MSDSFGVYVHVPFCSSRCGYCDFNTYTPGELGGTASPESYLDALEKELELAAASGTTRPATTVFIGGGTPSMLGASGLTRVLSAVRNTIGIAPGAEVTTESNPETTSPEFFSELLDAGYNRISLGMQSASSSVLRVLERKHTPGRAFDAALEAMNAGFLHVNLDMIYGTPTETDDDVRLTLERALDTGVDHISAYSLIVEDGTAMARKVHKGQLPPPNEDVYADRYGLIDTALRAQGFDWYEVSNWAKPGGECQHNLGYWLDGDWWGAGPGAHSHIASRRFFNVKHPSTYAQHLADGQLPIKEEELLDSTERHEESVMLGLRLRQGLELSRFTEAERAVIEKYVGLKLLHIYDGRVASTLQGRLLIDGIIADILVAYLEHHHHHH | not soluble |
